The values that follow are results of earlier work, collected in PMC6426597.

As a reminder, the Kd is the concentration at which binding is half-saturated.

This data set addresses CD40 (Homo sapiens) (UniProt P25942).
Sequence of UniProt P25942 (P25942 21-193): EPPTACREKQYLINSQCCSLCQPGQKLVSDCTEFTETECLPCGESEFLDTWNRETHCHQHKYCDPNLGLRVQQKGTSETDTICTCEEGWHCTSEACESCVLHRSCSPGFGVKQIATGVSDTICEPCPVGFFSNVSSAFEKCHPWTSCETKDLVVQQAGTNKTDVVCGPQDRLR

For the substance TSST-1 (from UniProt P06886), the Kd was 2700 nM.
